Measurements published in patent US20100254977A1.
Values belong to the molecule of their own block, whether it stands above or below them.

Legend:
[1] = biological target: human αv-integrins (human) (UniProt P06756); assay: cell-based or functional assay
[2] = biological target: human αv-integrins (human), P06756; assay: cell-based or functional assay
Sequence of human αv-integrins (human), P06756 (P06756 31-1048): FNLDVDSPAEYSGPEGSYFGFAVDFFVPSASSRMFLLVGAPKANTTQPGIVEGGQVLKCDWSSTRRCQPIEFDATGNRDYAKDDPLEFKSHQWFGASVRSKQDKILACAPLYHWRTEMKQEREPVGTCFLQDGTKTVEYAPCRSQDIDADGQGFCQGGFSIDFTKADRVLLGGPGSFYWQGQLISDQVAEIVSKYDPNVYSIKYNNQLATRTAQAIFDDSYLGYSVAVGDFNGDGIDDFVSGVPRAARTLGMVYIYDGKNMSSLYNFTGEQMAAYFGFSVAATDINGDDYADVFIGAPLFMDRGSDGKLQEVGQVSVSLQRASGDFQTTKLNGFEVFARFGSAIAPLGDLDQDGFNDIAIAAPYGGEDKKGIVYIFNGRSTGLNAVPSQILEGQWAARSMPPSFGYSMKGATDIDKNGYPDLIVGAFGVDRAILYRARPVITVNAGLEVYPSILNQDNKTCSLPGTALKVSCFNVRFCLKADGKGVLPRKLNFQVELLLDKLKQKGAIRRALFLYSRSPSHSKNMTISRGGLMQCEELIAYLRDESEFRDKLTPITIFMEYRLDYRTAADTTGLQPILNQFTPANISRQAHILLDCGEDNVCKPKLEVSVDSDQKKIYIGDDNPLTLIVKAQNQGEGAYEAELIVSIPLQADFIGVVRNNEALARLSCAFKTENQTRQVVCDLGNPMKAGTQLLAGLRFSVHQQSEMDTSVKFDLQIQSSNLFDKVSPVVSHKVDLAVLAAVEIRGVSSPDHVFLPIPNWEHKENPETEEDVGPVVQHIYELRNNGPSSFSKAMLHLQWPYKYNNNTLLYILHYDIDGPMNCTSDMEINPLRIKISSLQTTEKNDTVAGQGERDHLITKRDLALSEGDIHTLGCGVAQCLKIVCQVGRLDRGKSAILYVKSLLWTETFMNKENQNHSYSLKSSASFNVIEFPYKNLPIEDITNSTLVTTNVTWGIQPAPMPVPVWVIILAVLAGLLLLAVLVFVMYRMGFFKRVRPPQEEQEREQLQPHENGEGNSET

Sequence of human αv-integrins (human) (P06756 31-1048): as above

EC50, blocking of VEGF-induced migration of human endothelial cells on vitronectin [1]: 50 nM | EC50, blocking of tumor cell adhesions [1]: 0.1 to 50 nM | EC50, inhibition of human endothelial cell adhesion to vitronectin [1]: 10 nM | IC50, growth of HUVEC on vitronectin (Alamar Blue) [1]: 4 ng/mL
Molecule: DI-17E6 (antibody)

IC50, growth of HUVEC on vitronectin (Alamar Blue) [2]: 5 ng/mL
B1: mouse mAb 17E6 (antibody, mouse IgG1, V domains shown)
VH: EPKSSDKTHTCPPCP
VL: WGQGTTVTVSS
